The values that follow are results of earlier work, collected in PMC4034509, “Overcoming co-product inhibition in the nicotinamide independent asymmetric bioreduction of activated C=C-bonds using flavin-dependent ene-reductases” (Biotechnology and Bioengineering, 2013).

In general, pKa refers to the pH at which an ionisable group is half protonated.

The data set concerns the target Tyr206 (UniProt position 206, …). The settings on record: Not stated. The value is discussed in the context of the phenol/phenolate charge-transfer complex with the oxidised flavin in the EBP1 active site.

B1: Estrogen binding protein EBP1 (old yellow enzyme homologue) (Candida albicans) (protein)
chain: MTIESTNSFVVPSDTKLIDVTPLGSTKLFQPIKVGNNVLPQRIAYVPTTRFRASKDHIPSDLQLNYYNARSQYPGTLIITEATFASERGGIDLHVPGIYNDAQAKSWKKINEAIHGNGSFSSVQLWYLGRVANAKDLKDSGLPLIAPSAVYWDENSEKLAKEAGNELRALTEEEIDHIVEVEYPNAAKHALEAGFDYVEIHGAHGYLLDQFLNLASNKRTDKYGCGSIENRARLLLRVVDKLIEVVGANRLALRLSPWASFQGMEIEGEEIHSYILQQLQQRADNGQQLAYISLVEPRVTGIYDVSLKDQQGRSNEFAYKIWKGNFIRAGNYTYDAPEFKTLINDLKNDRSIIGFSRFFTSNPDLVEKLKLGKPLNYYNREEFYKYYNYGYNSYDESEKQVIGKPLA
With B1, the pKa is 9.4.
